Data: patent US20100135997A1
Changes are numbered by the printed parent chain. Values belong to the binder of their own block, whether it stands above or below them.

Target: Class I pMHC on target cells (Mel 624)
Assay: cell-based or functional assay

IC50 of inhibition of T cell activation (IFN-γ ELISPOT; Mel 624 target cells, MART-1 specific T cell clone): 0.4 nM
B1: c138 Fc dimer (polypeptide homodimer Fc fusion) (Fc fusion)
chain: HLPKPTLWAEPGSVITMDQPVTLRCQGGQETQQYRLYREKKTAPWITRIPQELVKKGQFPIPSITWEHAGRYRCYYGSDTRQWSASSDPLELVVTGVYIKPTLSAQPSPVVNSGGNVTLQCDSPFQADGFILCKEGEDDHPQCLNSQPHARGSSRAIFSVGPVSPSRRWRYRCYAYDSNSPYEWSLPSDLLELDVDGRMDPSRSVECPPCPAPPVAGPSVFLFPPKPKDTLMISRTPEVTCVVVDVSHEDPEVKFNWYVDGVEVHNAKTKPREEQYNSTYRVVSVLTVLHQDWLNGKEYKCKVSNKGLPSSIEKTISKAKGQPREPQVYTLPPSREEMTKNQVSLTCLVKGFYPSDIAVEWESNGQPENNYKTTPPVLDSDGSFFLYSKLTVDKSRWQQGNVFSCSVMHEGLHNHYTQKSLSLSPGK

IC50 of inhibition of T cell activation (IFN-γ ELISPOT; Mel 624 target cells, MART-1 specific T cell clone): 0.45 nM
B2: c132 Fc dimer (ILT Fc fusion homodimer) (Fc fusion)
chain: B1 chain with Q33E, R81S, D139E, R170W, D177M, N179W

IC50 of inhibition of T cell activation (IFN-γ ELISPOT; Mel 624 target cells, MART-1 specific T cell clone): 2.3 nM
B3: c64 Fc dimer (ILT Fc fusion homodimer) (Fc fusion)
chain: B1 chain with P124Q, F125V, Q126A, A127F
